B1: mRNA-decapping enzyme-like protein (Arabidopsis thaliana (Mouse-ear cress)), Q9SJF3 (parent)
chain: MSQNGKIIPNLDQNSTRLLNLTVLQRIDPYIEEILITAAHVTFYEFNIELSQWSRKDVEGSLFVVKRSTQPRFQFIVMNRRNTDNLVENLLGDFEYEVQGPYLLYRNASQEVNGIWFYNKRECEEVATLFNRILSAYSKVNQKPKASSSKSEFEELEAKPTMAVMDGPLEPSSTARDAPDDPAFVNFFSSTMNLGNTASGSASGPYQSSAIPHQPHQPHQPTIAPPVAAAAPPQIQSPPPLQSSSPLMTLFDNNPEVISSNSNIHTDLVTPSFFGPPRMMAQPHLIPGVSMPTAPPLNPNNASHQQRSYGTPVLQPFPPPTPPPSLAPAPTGPVISRDKVKEALLSLLQEDEFIDKITRTLQNALQQ
partner: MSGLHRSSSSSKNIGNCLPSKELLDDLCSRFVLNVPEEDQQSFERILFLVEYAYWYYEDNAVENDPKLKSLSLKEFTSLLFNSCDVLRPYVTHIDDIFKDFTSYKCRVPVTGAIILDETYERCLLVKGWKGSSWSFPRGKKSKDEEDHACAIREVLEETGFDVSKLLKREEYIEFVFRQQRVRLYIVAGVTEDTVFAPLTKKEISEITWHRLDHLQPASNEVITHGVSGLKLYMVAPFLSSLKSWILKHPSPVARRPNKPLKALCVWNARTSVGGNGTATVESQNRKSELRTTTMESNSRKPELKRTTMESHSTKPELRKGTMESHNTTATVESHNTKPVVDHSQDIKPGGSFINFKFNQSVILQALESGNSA

Variants of: B1
Settings: with dcp2_arath DCP2, Q8GW31

effect of a mutation on the interaction	Variant
increasing interaction	MSQNGKIIPNLDQNSTRLLNLTVLQRIDPYIEEILITAAHVTFYEFNIELSQWSRKDVEGSLFVVKRSTQPRFQFIVMNRRNTDNLVENLLGDFEYEVQGPYLLYRNASQEVNGIWFYNKRECEEVATLFNRILSAYSKVNQKPKASSSKSEFEELEAKPTMAVMDGPLEPSSTARDAPDDPAFVNFFSSTMNLGNTASGSASGPYQSSAIPHQPHQPHQPTIAPPVAAAAPPQIQDPPPLQSSSPLMTLFDNNPEVISSNSNIHTDLVTPSFFGPPRMMAQPHLIPGVSMPTAPPLNPNNASHQQRSYGTPVLQPFPPPTPPPSLAPAPTGPVISRDKVKEALLSLLQEDEFIDKITRTLQNALQQ [S237D]

From IntAct's records for PubMed 22407295
